Measured values as given in publication PMC3652662 (Journal of molecular recognition : JMR, 2009).
Starred links: 1 amine or outer side, 2 acyl side, 3 side chain; linkers in the order of their positions; H or OH if unused. Non-standard residues stand in square brackets, D forms with d. No end group written: not given here. X1 = (2S,4S)‑4‑(4-ferrocenyl-1H-1,2,3-triazol-1-yl)pyrrolidine‑2‑carboxylic acid, O=C([C@@H]1C[C@H](n2cc(-[c-]3cccc3)nn2)CN1[*:1])[*:2].[Fe+2].c1cc[cH-]c1

Columns and labels:
HIV-1_(SF162) gp120 = HIV-1_(SF162) gp120 (HIV-1 (strain SF162, clade B)); test: SPR
HIV-1_(92UG037-08) gp120 = HIV-1_(92UG037-08) gp120 (HIV-1 (strain 92UG037-08, clade A)); test: SPR

RINNI[X1]WSEAMM-NH2 [HNG-156, ferrocene triazole peptide conjugate]
Kd (HIV-1_(SF162) gp120): 9 nM
Kd (HIV-1_(92UG037-08) gp120): 16.3 nM
